Legend:
Settings in all cases: protein: commercial
bovine trypsin [1] = target: T1, bovine trypsin (Bos taurus (bovine), UniProt P00760 24-246); assay: enzyme inhibition (mixed mode); BAPNA, TAAB, 37 C; ELISA/pull-down: PBS pH 7.4, 5 mM MgCl2, 10 mM KCl, 0.01% Tween20, RT; SPR and inhibition (TAAB): 0.1 M Tris pH 7.5, 150 mM NaCl, 5 mM CaCl2, 10 mM KCl, 5 mM MgCl2, 0.02% Tween 20; inhibition at 37 C (full-length aptamer screen in selection buffer at RT)
bovine trypsin [2] = target: T1, bovine trypsin; assay: bead pull-down; ELISA/pull-down: PBS pH 7.4, 5 mM MgCl2, 10 mM KCl, 0.01% Tween20, RT; SPR and inhibition (TAAB): 0.1 M Tris pH 7.5, 150 mM NaCl, 5 mM CaCl2, 10 mM KCl, 5 mM MgCl2, 0.02% Tween 20; inhibition at 37 C (full-length aptamer screen in selection buffer at RT)
bovine trypsin [3] = target: T1, bovine trypsin; assay: SPR; kon 1.03e6 M-1s-1, koff 3.15e-3 s-1; TAAB; ELISA/pull-down: PBS pH 7.4, 5 mM MgCl2, 10 mM KCl, 0.01% Tween20, RT; SPR and inhibition (TAAB): 0.1 M Tris pH 7.5, 150 mM NaCl, 5 mM CaCl2, 10 mM KCl, 5 mM MgCl2, 0.02% Tween 20; inhibition at 37 C (full-length aptamer screen in selection buffer at RT)

T1 sequence (P00760 24-246): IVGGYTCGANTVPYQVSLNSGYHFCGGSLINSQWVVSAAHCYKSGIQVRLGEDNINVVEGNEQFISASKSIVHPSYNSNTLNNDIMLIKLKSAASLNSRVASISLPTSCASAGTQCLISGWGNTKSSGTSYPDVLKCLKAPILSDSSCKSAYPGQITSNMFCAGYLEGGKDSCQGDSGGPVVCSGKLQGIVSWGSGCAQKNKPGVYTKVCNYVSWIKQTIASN

| Binder | Ki (bovine trypsin [1]) [nM] | binding result (bovine trypsin [2]) | Kd (bovine trypsin [3]) [nM] |
| --- | --- | --- | --- |
| T59 (ssDNA) DNA: CATGCTTCCCCAGGGAGATGGGTGTGAGGTTAGTTTGCGGTCCTGGCAAAGGGGGGCCTGGAGGAACATG | 475 ± 48 |  |  |
| T22 (ssDNA) DNA: CATGCTTCCCCAGGGAGATGGGTGTGAGGTTAGGAAATCTGTGTTGAACACTGCTTTCAGGGGGCTTGGGAGGAACATGCGTCGCAAAC |  | binds |  |
| T21 (ssDNA) DNA: CATGCTTCCCCAGGGAGATGGGTGTGGGGTTAGGTCACTTTATGGTTGGTTCCATTGTGTCAGGGAGCCGGGAGGAACATGCGTCGCAAAC |  | binds |  |
| T24 (ssDNA) DNA: CATGCTTCCCCAGGGAGATGGGTGTGAGGTTAGTTTGCGGGAACTAGAATTCCTGGCAAAGGGGGGCCTGGAGGAACATGCGTCGCAAAC | 176 ± 16 |  | 3.06 |
